# Measured values from patent US7211241B2, “Cascade polymer complexes, process for their production and pharmaceutical agents containing said complexes” (Schering Aktiengesellschaft, priority 1995, dated 2007).
# Experiments:
# [1] = In vivo comparison with an extracellular contrast medium: blood concentrations of Gd and Dy in rats with ligated renal vessels; conditions: i.v.; for diffusion in the interstitium: compound 1 and compound 2 compared in the same animals; for time until equilibrium is reached (constant blood level): examination period 15 minutes
# Description: FIG. 1 is a graph of the measured blood concentrations of Gd (compound 1) and Dy (compound 2) in rats (n=5) with ligated renal vessels, as described in the above Example for an In Vivo Comparison with an Extracellular Contrast Medium.
# The suitability of the compound described in Example 1k) as blood-pool-agent is shown in the following test.
# As test animals, five male (Schering-SPF) rats that are 300–350 g in weight are used. Before the test, the abdomen is opened, the intestines are shifted and then the renal vessels (arterial+venous) of both sides are ligated through the rear peritoneum with a surgical needle. Then, the abdominal cavity is closed again. 0.3 ml (respectively 50 mmol/L) of the following contrast medium solution per animal is then administered intravenously: mixture of 1 part each of the compound of Example 1k), named compound 1 below, and the dysprosium complex of 10-(1-hydroxymethyl-2,3-dihydroxypropyl)-1,4,7-tris(carboxymethyl)-1,4,7,10-tetraazacyclododecane, produced analogously to the instructions in European Patent Application EP 448 191, named compound 2 below. Blood samples are taken with a catheter in the common carotid artery at the following times: 15, 30, 45, 60, 90 seconds, 3, 5, 10, 15 minutes p.i. In the blood samples obtained, the concentrations of gadolinium (Gd) and dysprosium (Dy) are measured with the aid of atomic emission spectrometry (ICP-AES) in each case in a parallel manner. The portion of the injected contrast medium of compound 1 (Gd) and compound 2 (Dy., comparison substance), remaining in the blood space, can be compared in the same animals by the different marking. Since a renal excretion is not possible, the decrease of the blood concentration can be attributed only to a distribution in the blood spaces and to the diffusion in the interstitial tissue.
# [2] = MR angiography on rabbits; type: in vivo; conditions: i.v. 50 μmol of Gd/kg of body weight, 1.5 tesla
# Description: The compound cited under Example 1k was studied on rabbits (CH. R. Kisslegg, ≈4 kg of body weight) in an MR angiography experiment (Ganzkörper [whole-Body] MRT System Siemens Vision, 1.5 tesla, FISP 3D; TR: 400 ms; TE 15 ms; flip angle: 45°; coronal).
# In a precontrast picture only one to two major vessels are visible (e.g., abdominal aorta) in relatively poor contrast (signal intensity SI of these vessels against the background).
# [3] = rats; cited from earlier work
Compound,behaviour as blood-pool contrast medium [1],diffusion in the interstitium [1],"blood concentrations ([1]; compound 1 versus compound 2, up to 15 minutes p.i.)",time until equilibrium is reached (constant blood level) [1],blood vessels visible after administration of contrast medium [2],contrast (SI of the vessels/SI of the background) ([2]; versus precontrast picture),excretion route [3]
"24-mer-Gd-complex of N-(5-DO3A-yl-4-oxo-3-azahexanoyl)-cascade polyamide based on N,N,N′,N′,N″,N″-hexakis[2-(trilysylamino)-ethyl]-trimesic acid triamide [Example 1k]",behaves as a blood-pool contrast medium,considerably slowed-down,constantly higher,no equilibrium is reached,a wide variety of minor blood vessels and capillaries,marked increase,–
"O=C([O-])CN1CCN(CC(=O)[O-])CCN(C(CO)C(O)CO)CCN(CC(=O)[O-])CC1.[Dy+3] (stereo not drawn) [compound 2, dysprosium complex of 10-(1-hydroxymethyl-2,3-dihydroxypropyl)-1,4,7-tris(carboxymethyl)-1,4,7,10-tetraazacyclododecane, reference compound]",–,diffuses quickly into the interstitial spaces of the body,–,3–5 minutes p.i.,–,–,–
polylysine-GdDTPA,–,–,–,–,–,–,excreted unchanged by glomerular filtration through the kidneys
